Assay results as given in US20240158455A1, “MULTIPLE SCLEROSIS ASSOCIATED AUTOANTIGENS, AND USE THEREOF IN THERAPY AND DIAGNOSIS” (NEOGAP Therapeutics AB, priority 2017, published 2024).
One block for each molecule: values may come before it.

What was measured:
HLA DRB5 01:01 = test: competitive HLA binding assay (legend: - No binding)
[1] = system: T-cells in PBMCs from MS patients and healthy controls; test: FluoroSpot with full-length recombinant antigens (52 patients, 24 controls), with ROC analysis; assay type: cell-based, human
Procedure: FIGS. 8A-8D. IFNγ/IL-22/IL-17 Fluorospot assay comparing T-cell activation in multiple sclerosis (MS)-patients and healthy controls when stimulated with full-length recombinant antigens (FABP7, PROK2, RTN3, SNAP91). Fifty-two Multiple Sclerosis patients and 24 healthy controls were tested for T-cell activation towards recombinant full-length versions of the autoantigens in a FluoroSpot assay. FIG. 8A: FABP7 isoform 2 (SEQ ID NO:1). FIG. 8B: PROK2 (SEQ ID NO:2). FIG. 8C: RTN3 SEQ ID NO:3. FIG. 8D: SNAP91 SEQ ID NO: 4. P-values calculated using Mann-Whitney test. Staples denote mean and C195%.
FIGS. 9A-9E. ROC-curves for the full-length antigens, Sensitivity and specificity when used as a diagnostic marker. Individually, the four antigens perform similarly as diagnostic markers for disease, all reaching a sensitivity of ˜50% with a specificity of 95%. FIG. 9A: FABP7 isoform 2. FIG. 9B: PROK2. FIG. 9C: RTN3. FIG. 9D: SNAP91. FIG. 9E: Using a combination of all four antigens as a diagnostic test achieves higher sensitivity and specificity. Specifically, utilizing the ratio of IL-17 divided by the square root of IFNγ response towards the mean response to the four antigens achieves a sensitivity of 70% with a specificity of >95%.
The full-length proteins can also be used in a similar way, see FIG. 9A-D. Utilizing all four full-length antigens, using each individual's average response to the four, increases the sensitivity and specificity further (FIG. 9E). Combining different readouts, such as analyzing the ratio between IL-17 and IFNγ, can increase the sensitivity of the test further (FIG. 9E, Table 2).
Recombinant full-length versions of the antigens FABP7 (SEQ ID NO: 1), PROK2 (SEQ ID NO: 2), RTN3 (SEQ ID NO: 3), SNAP91 (SEQ ID NO: 4) were produced in E. coli in house according to standard recombinant protein production protocols and purified via his-tag purification. 52 patients and 24 controls were tested for reactivity towards the antigens in an IFNγ/IL17/IL22 FluoroSpot assay as previously described.
A second, larger, cohort was collected in order to test the full length antigens. In this cohort, 52 patients and 24 healthy controls were included. The inclusion/exclusion criteria (table 5) as well as the sampling and PBMCs isolation were the same.
The antigens (FABP7, PROK2, RTN3 and SNAP91) picked out from the screening of PrESTs described in Example 1 and 2 were selected for further testing on the full-length versions of the protein. The full-length antigens were produced by transforming plasmids encoding the antigen and a […] into Escherichia coli. After growth, the bacteria were lysed and the protein purified from the supernatant of the bacterial lysis via 6× histidine-tag purification on an immobilized metal affinity chromatography-column. The antigens were subsequently coupled to beads and endotoxin-washed as previously described.
The FluoroSpot assay was performed under sterile conditions in a cell culture hood. The cells were thawed in a water bath at 37° C. and washed with cRPMI (RPMI 1640 medium, Sigma Aldrich, containing 10% fetal calf serum, 1% 200 mM L-Glutamine, 1% 10,000 U/ml Penicillin-10 mg/ml Streptomycin). The cells were counted manually using a light-microscope (Nikon TMS-F, Nikon, Japan) and subsequently diluted in cRPMI to a concentration of 2.5×10^6 cells/ml. The FluoroSpot plate (Human IFNγ/IL-22/IL-17A FluoroSpot kit, pre-coated, Mabtech, Sweden) was washed with PBS and then blocked with cRPMI for 30 min at room temperature. The blocking cRPMI was then discarded and 100 μl fresh cRPMI was added to each well of the FluoroSpot plate. Antigen (3×10^6 beads) was added to each well in duplicates according to a specific layout. In accordance to the manufacturer's protocol, anti-CD3 was used as a positive control. Both uncoupled beads and media without stimuli was used as negative controls. PBMCs (250,000 cells) in 100 μl cRPMI were added to each well (125,000 cells for the anti-CD3). […]

binding result (HLA DRB5 01:01): no binding
Molecule: TKPTVIISQEGDKVV (also called Pool 2 FABP7) [FABP7 peptide #8 (Aa 37-51 of SEQ ID NO: 1)]

binding result (HLA DRB5 01:01): no binding
Molecule: IISQEGDKVVIRTLS (also called Pool 2 FABP7) [FABP7 peptide #9 (Aa 42-56 of SEQ ID NO: 1)]

B1: SNAP91: recombinant full-length SNAP91 (SEQ ID NO: 4) produced in E. coli (protein, listed as Homo sapiens)
chain: MSGQTLTDRIAAAQYSVTGSAVARAVCKATTHEVMGPKKKHLDYLIQATNETNVNIPQMADTLFERATNSSWVVVFKALVTTHHLMVHGNERFIQYLASRNTLFNLSNFLDKSGSHGYDMSTFIRRYSRYLNEKAFSYRQMAFDFARVKKGADGVMRTMAPEKLLKSMPILQGQIDALLEFDVHPNELTNGVINAAFMLLFKDLIKLFACYNDGVINLLEKFFEMKKGQCKDALEIYKRFLTRMTRVSEFLKVAEQVGIDKGDIPDLTQAPSSLMETLEQHLNTLEGKKPGNNEGSGAPSPLSKSSPATTVTSPNSTPAKTIDTSPPVDLFATASAAVPVSTSKPSSDLLDLQPDFSSGGAAAAAAPAPPPPAGGATAWGDLLGEDSLAALSSVPSEAQISDPFAPEPTPPTTTAEIATASASASTTTTVTAVTAEVDLFGDAFAASPGEAPAASEGAAAPATPTPVAAALDACSGNDPFAPSEGSAEAAPELDLFAMKPPETSVPVVTPTASTAPPVPATAPSPAPAVAAAAAATTAATAAATTTTTTSAATATTAPPALDIFGDLFESTPEVAAAPKPDAAPSIDLFSTDAFSSPPQGASPVPESSLTADLLSVDAFAAPSPATTASPAKVDSSGVIDLFGDAFGSSASEPQPASQAASSSSASADLLAGFGGSFMAPSPSPVTPAQNNLLQPNFEAAFGTTPSTSSSSSFDPSVFDGLGDLLMPTMAPAGQPAPVSMVPPSPAMAASKALGSDLDSSLASLVGNLGISGTTTKKGDLQWNAGEKKLTGGANWQPKVAPATWSAGVPPSAPLQGAVPPTSSVPPVAGAPSVGQPGAGFGMPPAGTGMPMMPQQPVMFAQPMMRPPFGAAAVPGTQLSPSPTPASQSPKKPPAKDPLADLNIKDFL
reactivity of MS patients PBMCs versus controls, IFNγ [1]: apart from IFNγ for SNAP91 | reactivity of MS patients PBMCs versus controls, IL17 and IL22 [1]: significantly higher reactivity

B2: PROK2: recombinant full-length PROK2 (SEQ ID NO: 2) produced in E. coli (protein, listed as Homo sapiens)
chain: MRSLCCAPLLLLLLLPPLLLTPRAGDAAVITGACDKDSQCGGGMCCAVSIWVKSIRICTPMGKLGDSCHPLTRKNNFGNGRQERRKRKRSKRKKEVPFFGRRMHHTCPCLPGLACLRTSFNRFICLAQK
reactivity of MS patients PBMCs versus controls, IFNγ [1]: significantly higher reactivity | reactivity of MS patients PBMCs versus controls, IL17 and IL22 [1]: significantly higher reactivity

binding result (HLA DRB5 01:01): no binding
Molecule: TFKNTEISFQLGEEF (also called Pool 2 FABP7) [FABP7 peptide #12 (Aa 57-71 of SEQ ID NO: 1)]

binding result (HLA DRB5 01:01): no binding
Molecule: HTCPCLPGLACLRTS (also called Pool 3 PROK2) [PROK2 peptide #19 (Aa 105-119 of SEQ ID NO: 2)]

B3: RTN3: recombinant full-length RTN3 (SEQ ID NO: 3) produced in E. coli (protein, listed as Homo sapiens)
chain: MAEPSAATQSHSISSSSFGAEPSAPGGGGSPGACPALGTKSCSSSCADSFVSSSSSQPVSLFSTSQEGLSSLCSDEPSSEIMTSSFLSSSEIHNTGLTILHGEKSHVLGSQPILAKEGKDHLDLLDMKKMEKPQGTSNNVSDSSVSLAAGVHCDRPSIPASFPEHPAFLSKKIGQVEEQIDKETKNPNGVSSREAKTALDADDRFTLLTAQKPPTEYSKVEGIYTYSLSPSKVSGDDVIEKDSPESPFEVIIDKAAFDKEFKDSYKESTDDFGSWSVHTDKESSEDISETNDKLFPLRNKEAGRYPMSALLSRQFSHTNAALEEVSRCVNDMHNFTNEILTWDLVPQVKQQTDKSSDCITKTTGLDMSEYNSEIPVVNLKTSTHQKTPVCSIDGSTPITKSTGDWAEASLQQENAITGKPVPDSLNSTKEFSIKGVQGNMQKQDDTLAELPGSPPEKCDSLGSGVATVKVVLPDDHLKDEMDWQSSALGEITEADSSGESDDTVIEDITADTSFENNKIQAEKPVSIPSAVVKTGEREIKEIPSCEREEKTSKNFEELVSDSELHQDQPDILGRSPASEAACSKVPDTNVSLEDVSEVAPEKPITTENPKLPSTVSPNVFNETEFSLNVTTSAYLESLHGKNVKHIDDSSPEDLIAAFTETRDKGIVDSERNAFKAISEKMTDFKTTPPVEVLHENESGGSEIKDIGSKYSEQSKETNGSEPLGVFPTQGTPVASLDLEQEQLTIKALKELGERQVEKSTSAQRDAELPSEEVLKQTFTFAPESWPQRSYDILERNVKNGSDLGISQKPITIRETTRVDAVSSLSKTELVKKHVLARLLTDFSVHDLIFWRDVKKTGFVFGTTLIMLLSLAAFSVISVVSYLILALLSVTISFRIYKSVIQAVQKSEEGHPFKAYLDVDITLSSEAFHNYMNAAMVHINRALKLIIRLFLVEDLVDSLKLAVFMWLMTYVGAVFNGITLLILAELLIFSVPIVYEKYKTQIDHYVGIARDQTKSIVEKIQAKLPGIAKKKAE
reactivity of MS patients PBMCs versus controls, IFNγ [1]: significantly higher reactivity | reactivity of MS patients PBMCs versus controls, IL17 and IL22 [1]: significantly higher reactivity

binding result (HLA DRB5 01:01): no binding
Molecule: IRTLSTFKNTEISFQ (also called Pool 2 FABP7) [FABP7 peptide #11 (Aa 52-66 of SEQ ID NO: 1)]

binding result (HLA DRB5 01:01): no binding
Molecule: EISFQLGEEFDETTA (also called Pool 3 FABP7) [FABP7 peptide #13 (Aa 62-76 of SEQ ID NO: 1)]

binding result (HLA DRB5 01:01): no binding
Molecule: LGEEFDETTADDRNC (also called Pool 3 FABP7) [FABP7 peptide #14 (Aa 67-81 of SEQ ID NO: 1)]

B4: FABP7 isoform 2. Full length: recombinant full-length human FABP7 isoform 2 (SEQ ID NO: 1) produced in E. coli; in b59 "FABP7" refers to PrEST data (protein, listed as Homo sapiens)
chain: MVEAFCATWKLTNSQNFDEYMKALGVGFATRQVGNVTKPTVIISQEGDKVVIRTLSTFKNTEISFQLGEEFDETTADDRNCKSVVSLDGDKLVHIQKWDGKETNFVREIKDGKMVMVSNDNSPFFLVFFSSPHTSHLLPSSSLLLPFFLLPSFFNNTSLARFFNYM
reactivity of MS patients PBMCs versus controls, IFNγ [1]: significantly higher reactivity | reactivity of MS patients PBMCs versus controls, IL17 and IL22 [1]: significantly higher reactivity
